Laboratory results taken from paper PMC9482650, “Quantitative fragmentomics allow affinity mapping of interactomes” (Nature Communications, 2022).
Values belong to the binder of their own block, whether it stands above or below them.

Experiments:
Test in all cases: holdup assay
Parameters in all cases: key: below the threshold = too weak to quantify, mostly under pKd 3.1 to 4
[1] = molecular target: AHNAK1, Q09666
[2] = molecular target: T1, APBA2_1, Q99767
T1 sequence (Q99767 563-664, limits assumed, looked up): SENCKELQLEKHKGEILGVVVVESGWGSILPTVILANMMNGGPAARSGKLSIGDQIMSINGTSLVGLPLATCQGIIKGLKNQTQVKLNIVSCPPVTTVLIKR

[3] = molecular target: T2, DFNB31_1, Q9P202
T2 sequence (Q9P202 135-233, limits assumed, looked up): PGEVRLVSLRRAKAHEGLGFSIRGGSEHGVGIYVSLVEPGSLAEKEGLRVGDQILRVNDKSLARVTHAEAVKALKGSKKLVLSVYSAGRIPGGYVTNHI

[4] = molecular target: DLG1_1, Q12959
[5] = molecular target: DLG1_2, Q12959
[6] = molecular target: DLG2_3, Q15700
[7] = molecular target: T3, DLG3_2, Q92796
T3 sequence (Q92796 221-321, limits assumed, looked up): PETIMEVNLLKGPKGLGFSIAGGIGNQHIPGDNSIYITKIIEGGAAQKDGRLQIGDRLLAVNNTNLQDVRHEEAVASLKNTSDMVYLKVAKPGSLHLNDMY

[8] = molecular target: GORASP1, Q9BQQ3
[9] = molecular target: T4, GRIP1_3, Q9Y3R0
T4 sequence (Q9Y3R0 247-346, limits assumed, looked up): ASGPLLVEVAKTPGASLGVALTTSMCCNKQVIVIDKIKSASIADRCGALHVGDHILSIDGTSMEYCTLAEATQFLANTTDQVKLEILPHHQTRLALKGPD

[10] = molecular target: T5, GRIP1_4, Q9Y3R0
T5 sequence (Q9Y3R0 467-571, limits assumed, looked up): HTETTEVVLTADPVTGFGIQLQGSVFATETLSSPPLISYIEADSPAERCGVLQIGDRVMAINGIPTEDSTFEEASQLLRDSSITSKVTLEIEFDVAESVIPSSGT

[11] = molecular target: T6, GRIP1_7, Q9Y3R0
T6 sequence (Q9Y3R0 999-1096, limits assumed, looked up): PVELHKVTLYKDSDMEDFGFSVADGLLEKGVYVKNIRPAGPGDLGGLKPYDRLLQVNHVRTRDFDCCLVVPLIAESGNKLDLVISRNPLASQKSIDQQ

[12] = molecular target: T7, HTRA3, P83110
T7 sequence (P83110 354-453, limits assumed, looked up): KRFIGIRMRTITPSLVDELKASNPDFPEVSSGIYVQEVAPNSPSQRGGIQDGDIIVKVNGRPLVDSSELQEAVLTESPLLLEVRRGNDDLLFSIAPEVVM

[13] = molecular target: Inadl_1, Q8NI35
[14] = molecular target: Inadl_10, Q8NI35
[15] = molecular target: Inadl_5, Q8NI35
[16] = molecular target: Inadl_9, Q8NI35
[17] = molecular target: T8, LIN7B, Q9HAP6
T8 sequence (Q9HAP6 88-185, limits assumed, looked up): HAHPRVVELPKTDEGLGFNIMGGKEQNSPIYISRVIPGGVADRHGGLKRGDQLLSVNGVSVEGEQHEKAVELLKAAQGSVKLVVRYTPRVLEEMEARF

[18] = molecular target: LNX1_3, Q8TBB1
[19] = molecular target: T9, MPP7, Q5T2T1
T9 sequence (Q5T2T1 134-230, limits assumed, looked up): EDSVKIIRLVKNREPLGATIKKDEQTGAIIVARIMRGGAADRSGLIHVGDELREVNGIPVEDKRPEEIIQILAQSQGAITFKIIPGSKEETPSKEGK

[20] = molecular target: NHERF4_1, Q86UT5-2
[21] = molecular target: T10, PCLO, Q9Y6V0
T10 sequence (Q9Y6V0 4491-4600, limits assumed, looked up): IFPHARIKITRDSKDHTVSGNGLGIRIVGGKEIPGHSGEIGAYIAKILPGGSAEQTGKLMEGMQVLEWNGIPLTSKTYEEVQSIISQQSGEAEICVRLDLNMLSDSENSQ

[22] = molecular target: T11, PDZD2_2, O15018
T11 sequence (O15018 329-429, limits assumed, looked up): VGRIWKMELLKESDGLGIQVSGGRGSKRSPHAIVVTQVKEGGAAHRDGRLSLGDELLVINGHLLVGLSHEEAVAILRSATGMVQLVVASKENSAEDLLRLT

[23] = molecular target: PDZRN4_1, Q6ZMN7
[24] = molecular target: PICK1, Q9NRD5
[25] = molecular target: SCRIB_3, Q14160
[26] = molecular target: T12, SNTB1, Q13884
T12 sequence (Q13884 107-205, limits assumed, looked up): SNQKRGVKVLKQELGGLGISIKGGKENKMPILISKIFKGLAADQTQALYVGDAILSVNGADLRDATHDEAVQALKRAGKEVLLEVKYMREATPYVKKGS

[27] = plain residues with an end cap or a label only (N-terminal biotin on a linker: ttds)
[28] = plain residues with an end cap or a label only (N-terminal biotin on a linker: ahx)

Sequence of LNX1_3, Q8TBB1 (Q8TBB1 500-596): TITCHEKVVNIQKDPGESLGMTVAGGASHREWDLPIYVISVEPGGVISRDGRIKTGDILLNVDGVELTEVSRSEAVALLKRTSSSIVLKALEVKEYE
Sequence of PICK1, Q9NRD5 (Q9NRD5 17-115): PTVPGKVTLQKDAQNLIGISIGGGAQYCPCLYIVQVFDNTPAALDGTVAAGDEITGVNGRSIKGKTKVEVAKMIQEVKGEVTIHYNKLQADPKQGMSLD
Sequence of SCRIB_3, Q14160 (Q14160 999-1103): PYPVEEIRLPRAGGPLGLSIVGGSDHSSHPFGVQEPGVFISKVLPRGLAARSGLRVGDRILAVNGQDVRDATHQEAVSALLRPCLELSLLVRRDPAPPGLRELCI
Sequence of Inadl_5, Q8NI35 (Q8NI35 673-780): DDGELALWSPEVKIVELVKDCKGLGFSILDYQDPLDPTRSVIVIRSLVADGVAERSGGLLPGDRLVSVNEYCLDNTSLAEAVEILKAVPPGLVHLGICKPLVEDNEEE
Sequence of PDZRN4_1, Q6ZMN7 (Q6ZMN7 213-318): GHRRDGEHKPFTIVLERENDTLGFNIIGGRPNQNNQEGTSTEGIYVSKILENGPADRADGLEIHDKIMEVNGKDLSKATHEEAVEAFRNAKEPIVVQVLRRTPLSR
Sequence of Inadl_10, Q8NI35 (Q8NI35 1673-1763): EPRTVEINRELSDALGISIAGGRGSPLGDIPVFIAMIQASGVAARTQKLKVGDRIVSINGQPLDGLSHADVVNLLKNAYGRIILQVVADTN
Sequence of Inadl_9, Q8NI35 (Q8NI35 1530-1615): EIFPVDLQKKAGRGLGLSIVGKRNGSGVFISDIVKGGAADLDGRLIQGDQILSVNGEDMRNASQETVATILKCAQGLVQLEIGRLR
Sequence of Inadl_1, Q8NI35 (Q8NI35 113-229): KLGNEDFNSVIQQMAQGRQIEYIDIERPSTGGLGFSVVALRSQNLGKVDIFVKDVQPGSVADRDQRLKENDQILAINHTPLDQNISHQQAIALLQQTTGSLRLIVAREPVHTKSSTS
Sequence of AHNAK1, Q09666 (Q09666 4-100): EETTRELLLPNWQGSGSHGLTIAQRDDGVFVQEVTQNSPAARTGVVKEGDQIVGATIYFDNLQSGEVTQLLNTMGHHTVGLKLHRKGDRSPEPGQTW
Sequence of GORASP1, Q9BQQ3 (Q9BQQ3 1-208): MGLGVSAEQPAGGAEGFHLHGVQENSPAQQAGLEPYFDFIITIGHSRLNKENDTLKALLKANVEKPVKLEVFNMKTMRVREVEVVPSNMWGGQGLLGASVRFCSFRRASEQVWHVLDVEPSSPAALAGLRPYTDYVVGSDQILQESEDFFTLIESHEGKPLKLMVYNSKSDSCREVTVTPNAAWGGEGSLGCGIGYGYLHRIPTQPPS
Sequence of NHERF4_1, Q86UT5-2 (Q86UT5 other isoform, or with tags, fused parts or gaps): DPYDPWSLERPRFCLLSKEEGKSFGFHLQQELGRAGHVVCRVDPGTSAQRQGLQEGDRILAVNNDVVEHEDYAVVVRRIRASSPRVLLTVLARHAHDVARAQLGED

Binder: SPLHSLETSL [ATP2B1, P20020]
pKd [1, 27]: below the threshold | pKd [2, 27]: below the threshold | pKd [3, 27]: 4.22 | pKd [4, 27]: 4.12 | pKd [5, 27]: 4.67 | pKd [6, 27]: 4.07 | pKd [7, 27]: 4.35 | pKd [8, 27]: 3.61 | pKd [9, 27]: below the threshold | pKd [10, 27]: below the threshold | pKd [11, 27]: 3.58 | pKd [12, 27]: below the threshold | pKd [13, 27]: 3.69 | pKd [14, 27]: below the threshold | pKd [15, 27]: below the threshold | pKd [16, 27]: below the threshold | pKd [17, 27]: 4.22 | pKd [18, 27]: below the threshold | pKd [19, 27]: below the threshold | pKd [20, 27]: 3.91 | pKd [21, 27]: below the threshold | pKd [22, 27]: below the threshold | pKd [23, 27]: 5.24 | pKd [24, 27]: below the threshold | pKd [25, 27]: 5.54 | pKd [26, 27]: 4.69

Binder: RNCSTNDSLL [ADRB2, P07550]
pKd [1, 28]: below the threshold | pKd [2, 28]: below the threshold | pKd [3, 28]: below the threshold | pKd [4, 28]: below the threshold | pKd [5, 28]: below the threshold | pKd [6, 28]: below the threshold | pKd [7, 28]: below the threshold | pKd [8, 28]: below the threshold | pKd [9, 28]: below the threshold | pKd [10, 28]: below the threshold | pKd [11, 28]: 3.48 | pKd [12, 28]: below the threshold | pKd [13, 28]: below the threshold | pKd [14, 28]: 3.56 | pKd [15, 28]: below the threshold | pKd [16, 28]: below the threshold | pKd [17, 28]: below the threshold | pKd [18, 28]: below the threshold | pKd [19, 28]: below the threshold | pKd [20, 28]: 3.88 | pKd [21, 28]: below the threshold | pKd [22, 28]: below the threshold | pKd [23, 28]: below the threshold | pKd [24, 28]: below the threshold | pKd [25, 28]: below the threshold | pKd [26, 28]: below the threshold

Second part, the binder after the results:

pKd [1, 27]: below the threshold | pKd [2, 27]: below the threshold | pKd [3, 27]: 4.81 | pKd [4, 27]: 4.73 | pKd [5, 27]: 5.16 | pKd [6, 27]: 4.38 | pKd [7, 27]: 4.88 | pKd [8, 27]: below the threshold | pKd [9, 27]: below the threshold | pKd [10, 27]: below the threshold | pKd [11, 27]: 3.74 | pKd [12, 27]: below the threshold | pKd [13, 27]: below the threshold | pKd [14, 27]: below the threshold | pKd [15, 27]: below the threshold | pKd [16, 27]: below the threshold | pKd [17, 27]: 4.09 | pKd [18, 27]: below the threshold | pKd [19, 27]: below the threshold | pKd [20, 27]: below the threshold | pKd [21, 27]: below the threshold | pKd [22, 27]: 5.1 | pKd [23, 27]: 4.81 | pKd [24, 27]: below the threshold | pKd [25, 27]: 5.05 | pKd [26, 27]: 5.29
Binder: IQREDQETAV [DGKZ, Q13574]

pKd [1, 28]: below the threshold | pKd [2, 28]: below the threshold | pKd [3, 28]: below the threshold | pKd [4, 28]: below the threshold | pKd [5, 28]: below the threshold | pKd [6, 28]: below the threshold | pKd [7, 28]: below the threshold | pKd [8, 28]: below the threshold | pKd [9, 28]: below the threshold | pKd [10, 28]: below the threshold | pKd [11, 28]: below the threshold | pKd [12, 28]: below the threshold | pKd [13, 28]: below the threshold | pKd [14, 28]: below the threshold | pKd [15, 28]: below the threshold | pKd [16, 28]: below the threshold | pKd [17, 28]: below the threshold | pKd [18, 28]: below the threshold | pKd [19, 28]: below the threshold | pKd [20, 28]: below the threshold | pKd [21, 28]: below the threshold | pKd [22, 28]: below the threshold | pKd [23, 28]: below the threshold | pKd [24, 28]: below the threshold | pKd [25, 28]: below the threshold | pKd [26, 28]: below the threshold
Binder: SSSNSEDTEM [NHERF3, Q5T2W1]

pKd [1, 28]: below the threshold | pKd [2, 28]: below the threshold | pKd [3, 28]: 3.61 | pKd [4, 28]: 3.93 | pKd [5, 28]: 4.15 | pKd [6, 28]: 3.47 | pKd [7, 28]: 3.92 | pKd [8, 28]: 3.86 | pKd [9, 28]: below the threshold | pKd [10, 28]: below the threshold | pKd [11, 28]: below the threshold | pKd [12, 28]: 4.42 | pKd [13, 28]: below the threshold | pKd [14, 28]: 3.91 | pKd [15, 28]: 3.86 | pKd [16, 28]: 4.42 | pKd [17, 28]: below the threshold | pKd [18, 28]: below the threshold | pKd [19, 28]: below the threshold | pKd [20, 28]: below the threshold | pKd [21, 28]: below the threshold | pKd [22, 28]: 5.04 | pKd [23, 28]: below the threshold | pKd [24, 28]: below the threshold | pKd [25, 28]: 4.18 | pKd [26, 28]: 3.47
Binder: KTSAHHATFV [RGS12, O14924]
